Measured values published in patent US11046988B2, “Process for the modification of a glycoprotein using a β-(1,4)-N-acetylgalactosaminyl transferase or a mutant thereof” (Synaffix B.V., priority 2014, dated 2021).

B1: GalT(Y289L): β-(1,4)-galactosyltransferase mutant enzyme Bos taurus GalT-Y289L (SEQ ID NO: 1), prior-art comparator (protein)
chain: MKFREPLLGGSAAMPGASLQRACRLLVAVCALHLGVTLVYYLAGRDLRRLPQLVGVHPPLQGSSHGAAAIGQPSGELRLRGVAPPPPLQNSSKPRSRAPSNLDAYSHPGPGPGPGSNLTSAPVPSTTTRSLTACPEESPLLVGPMLIEFNIPVDLKLIEQQNPKVKLGGRYTPMDCISPHKVAIIILFRNRQEHLKYWLYYLHPMVQRQQLDYGIYVINQAGESMFNRAKLLNVGFKEALKDYDYNCFVFSDVDLIPMNDHNTYRCFSQPRHISVAMDKFGFSLPYVQLFGGVSALSKQQFLSINGFPNNYWGWGGEDDDIYNRLAFRGMSVSRPNAVIGKCRMIRHSRDKKNEPNPQRFDRIAHTKETMLSDGLNSLTYMVLEVQRYPLYTKITVDIGTPS
modifications: Bos Taurus GalT Y289L mutant

Test: Coupled glycosyltransferase assay (R&D Systems Glycosyltransferase Activity Kit, malachite green, 620 nm): transfer of F2-GalNAz to GlcNAc
Format: biochemical
Parameters: Data from the determination of the specific activity: unit not given here
Settings: for Data from the determination of the specific activity: GlcNAc 20 mM, UDP-F2-GalNAz 500 μM, 20 min, room temperature, plate read at 620 nm; for specific activity: UDP-F2-GalNAz 500 μM to GlcNAc 20 mM, 5 mM MgCl2 and 5 mM MnCl2, pH 7.5, linear regression; for transferase activity compared with GalT(Y289L): transfer of F2-GalNAz from UDP-F2-GalNAz (18) to GlcNAc, FIG. 7 / FIG. 8
Description: In brief, the glycosyltransferase kit determines the activity of a particular glycosyltransferase by means of a coupled assay that detects the release of liberated UDP upon transfer of the donor sugar (from the sugar-UDP nucleotide) to an acceptor sugar. In more detail, the UDP that is liberated upon transfer of sugar is hydrolyzed by a particular enzyme (CD39L3/rectonucleoside triphosphate diphosphohydrolase-3, also known as NTPDase-3) thereby generating UMP and one equivalent of phosphate (Pi). The latter phosphate in turn is detected by malachite green, which is also added to the mixture. A green color develops in proportion to the amount of inorganic phosphate released and the absorbance of the color at 620 nm is measured as a direct measure of the activity of the glycosyltransferase. In the present case, transfer of F2-GalNAz from the UDP-substrate to GlcNAc on the protein is accompanied by release of UDP, which is hydrolyzed by CD39L3 and the generated phosphate. Preferably, the derived or wild type β-(1,4)-GalNAcT enzyme used in the process according to the invention has at least 30%, 33%, 50%, 75%, 100%, 150%, 200%, or more preferably at least 300% of the UDP-F2-GalNAz transfer activity as compared to the UDP-F2-GalNAz transfer activity of the β-(1,4)-galactosyltransferase mutant enzyme Bos taurus GalT-Y289L (SEQ ID NO: 1), wherein the transfer activity is assessed using the R&D Systems Glycosyltransferase Activity Kit and applying the conditions as indicated in detail in Example 18 and using equal amounts of the enzyme to be tested and β-(1,4)-galactosyltransferase mutant enzyme Bos taurus GalT-Y289L (SEQ ID NO: 1).
Specific activity of enzymes was determined by a coupled glycosyltransferase procedure as described by Wu et al. in Glycobiology 2010, 21, 723-733, incorporated by reference, and commercially available as a kit from R&D system.
In short, a glycosyltransferase reaction was carried out in 50 μL of reaction buffer (25 mM Tris, 150 mM NaCl, 5 mM MgCl2 and 5 mM MnCl2, pH 7.5) in a 96-well plate at room temperature for 20 min. To determine the kinetic parameters of a glycosyltransferase, multiple reactions with varying amounts of the enzyme were carried out simultaneously (0.01, 0.02, 0.04, 0.06, 0.08, 0.10 and 0.12 μg of enzyme) in the presence of fixed amounts of all other components (GlcNAc: 20 mM, UDP-F2-GalNAz: 500 μM), including the coupling phosphatase 1 (ENTPD3/CD39L3) (2.5 μL of 20 ng/μL solution). A well containing all components except for the enzyme served as a blank control. The reactions were initiated by adding the substrates and phosphatase to the enzyme and terminated by the addition of 30 μL of Malachite reagent A and 100 μL of water to each well. The color was developed by the addition of 30 μL of Malachite reagent B to each well followed by gentle mixing and incubation at room temperature for 20 min. Following color development, the plate was read at 620 nm with a multi-well plate reader. A phosphate standard curve was also performed to determine the conversion factor between the absorbance and the inorganic phosphate contents. Preparation of UDP-F2-GalNAz is described in Example 13.
The specific activity of the GalNAcTs described herein were compared to GalT(Y289L), an enzyme known to transfer UDP-GalNAz as previously disclosed in WO 2007/095506 and WO 2008/029281 (both Invitrogen Corporation).
A graph depicting the conversion (in pmol/min/m) plotted against the amount of enzyme is shown in FIG. 7 (for Table 1) and FIG. 8 (for Table 2). From these plots specific activities were calculated by linear regression. […]

| Molecule | Data from the determination of the specific activity (0.01 μg enzyme) | Data from the determination of the specific activity (0.02 μg enzyme) | Data from the determination of the specific activity (0.04 μg enzyme) | Data from the determination of the specific activity (0.06 μg enzyme) | Data from the determination of the specific activity (0.08 μg enzyme) | Data from the determination of the specific activity (0.1 μg enzyme) | Data from the determination of the specific activity (0.12 μg enzyme) | specific activity | transferase activity compared with GalT(Y289L) |
| --- | --- | --- | --- | --- | --- | --- | --- | --- | --- |
| CeGalNAcT(I257A): truncated C. elegans GalNAcT mutant, isoleucine 257 to alanine, SEQ ID NO: 12 | 0.009 | 0.032 | 0.049 | 0.078 | 0.097 | 0.119 | 0.152 | 240 pmol/min/µg | significantly higher |
| CeGalNAcT(I257L): truncated C. elegans GalNAcT mutant, isoleucine 257 to leucine, SEQ ID NO: 10 | 0.02 | 0.038 | 0.081 | 0.136 | 0.153 | 0.205 | 0.245 | 381 pmol/min/µg | significantly higher |
| CeGalNAcT-His: CeGalNAcT(30-383) with C-terminal His6-tag, SEQ ID NO: 14 | 0.024 | 0.044 | 0.129 | 0.161 | 0.191 | 0.226 | 0.285 | 332 pmol/min/µg | significantly higher |
| B1 | 0.005 | 0.011 | 0.013 | 0.02 | 0.027 | 0.034 | 0.039 | 44 pmol/min/µg | – |
